These results are taken from publication PMC8691596.

Residue numbers refer to the chain shown, from its start. Names may count otherwise. Where two headings read alike, the source gives them in different places.

Assay [1] addresses human FcγRIIIa (CD16a) V158 allele, histidine-tagged recombinant (human) (UniProt P08637). Briefly: SPR; His-tagged Fc receptor captured by anti-histidine antibody immobilised on CM5; antibody injected at 100 μg/mL for 1 min; response about 5 s before end of injection, blank subtracted; 25°C, HBS-EP+; Biacore T200. On the technique in general: In SPR one partner is held on a chip, and binding of the other changes the refractive index at the surface.

The target of assay [2] is human FcγRIIIa (CD16a) F158 allele, histidine-tagged recombinant (human) (UniProt P08637). Described as above.
The target in assay [3] is rat FcγRI (CD64), histidine-tagged recombinant (rat). The description is as above.
Assay [4] addresses anti-CD20 IgG1 L234S/L235T/G236R (human). Kind of assay: SPR; antibody captured by biotin-labelled anti-human κ light chain on streptavidin CM5; soluble Fcγ receptor injected at one concentration ([…] to 18 μM); HBS-EP+ pH 7.4, 25°C; Biacore 8K.
For assay [5] the target is unchanged. Described as above. This is another data set of the same source.
Setting [6] is: remark: other sources report otherwise.

B1: anti-CD52 IgG1 L234A/L235A (LALA) (antibody, V domains shown)
VH: QVQLQESGPGLVRPSQTLSLTCTVSGFTFTDFYMNWVRQPPGRGLEWIGFIRDKAKGYTTEYNPSVKGRVTMLVDTSKNQFSLRLSSVTAADTAVYYCAREGHTAAPFDYWGQGSLVTVSS
VL: DIQMTQSPSSLSASVGDRVTITCKASQNIDKYLNWYQQKPGKAPKLLIYNTNNLQTGVPSRFSGSGSGTDFTFTISSLQPEDIATYYCLQHISRPRTFGQGTKLEIK
As for B1, the mean response was found to be 63.2 RU in assay [1] and 17 RU in assay [2].

B2: anti-CD52 IgG1 N297Q (aglycosyl) (antibody, V domains shown)
VH: B1 VH
VL: B1 VL
In the case of B2, the mean response in assay [3] stood at 488 RU.

B3: mouse FcγRI extracellular domain, C-terminal hexa-His (independently-made panel) (receptor)
chain: EVVNATKAVITLQPPWVSIFQKENVTLWCEGPHLPGDSSTQWFINGTAVQISTPSYSIPEASFQDSGEYRCQIGSSMPSDPVQLQIHNDWLLLQASRRVLTEGEPLALRCHGWKNKLVYNVVFYRNGKSFQFSSDSEVAILKTNLSHSGIYHCSGTGRHRYTSAGVSITVKELFTTPVLRASVSSPFPEGSLVTLNCETNLLLQRPGLQLHFSFYVGSKILEYRNTSSEYHIARAEREDAGFYWCEVATEDSSVLKRSPELELQVLGPQSSAP
B3 had a response in assay [4] of less than 1 RU.

B4: mouse FcγRIII extracellular domain, C-terminal hexa-His (receptor)
chain: ALPKAVVKLDPPWIQVLKEDMVTLMCEGTHNPGNSSTQWFHNGRSIRSQVQASYTFKATVNDSGEYRCQMEQTRLSDPVDLGVISDWLLLQTPQRVFLEGETITLRCHSWRNKLLNRISFFHNEKSVRYHHYKSNFSIPKANHSHSGDYYCKGSLGSTQHQSKPVTITVQDPATTSSISLVWYHT
B4 came in with a response in assay [4] of less than 1 RU.

B5: human FcγRIIa H131 extracellular domain, C-terminal hexa-His (independently-made panel), P12318 34-217 (receptor)
chain: QAAAPPKAVLKLEPPWINVLQEDSVTLTCQGARSPESDSIQWFHNGNLIPTHTQPSYRFKANNNDSGEYTCQTGQTSLSDPVHLTVLSEWLVLQTPHLEFQEGETIMLRCHSWKDKPLVKVTFFQNGKSQKFSHLDPTFSIPQANHSHSGDYHCTGNIGYTLFSSKPVTITVQVPSMGSSSPMG
As to B5, the response in assay [5] (setting [6]) was less than 1 RU.

B6: human FcγRIIa R131 extracellular domain, C-terminal hexa-His (independently-made panel), P12318 34-217 (receptor)
chain: B5 chain with H134R
modifications: not checked
The molecule B6 gave a response in assay [5] of less than 1 RU.

B7: cynomolgus monkey FcγRIII extracellular domain, C-terminal hexa-His (receptor)
chain: GMRAEDLPKAVVFLEPQWYRVLEKDRVTLKCQGAYSPEDNSTRWFHNESLISSQTSSYFIAAARVNNSGEYRCQTSLSTLSDPVQLEVHIGWLLLQAPRWVFKEEESIHLRCHSWKNTLLHKVTYLQNGKGRKYFHQNSDFYIPKATLKDSGSYFCRGLIGSKNVSSETVNITITQDLAVSSISSFFPPGYQ
B7 registered a response in assay [5] (setting [6]) of less than 1 RU.

B8: mouse FcγRIIb extracellular domain, C-terminal hexa-His (receptor)
chain: THDLPKAVVKLEPPWIQVLKEDTVTLTCEGTHNPGNSSTQWFHNGRSIRSQVQASYTFKATVNDSGEYRCQMEQTRLSDPVDLGVISDWLLLQTPQLVFLEGETITLRCHSWRNKLLNRISFFHNEKSVRYHHYSSNFSIPKANHSHSGDYYCKGSLGRTLHQSKPVTITVQGPKSSRSLP
In assay [4], B8 yielded a response of less than 1 RU.
